Test results reported in patent publication US20210206842A1 (NATIONAL RESEARCH COUNCIL OF CANADA, published 2021).

What was measured:
[1] = molecular target: T1, FC5DIE3IR recombinant protein; assay: SPR (Biacore T200), VHH flowed over immobilized FC5DIE3IR, steady state fit, 25 C
T1 construct: Made in CHO-3E7 cells; also called FC5DIE31R; FC5DIE3R
Text: (§1) Surface Plasmon Resonance for VHH antibodies. […] Monomeric VHH fractions were collected and protein concentration determined by measuring A280 measurement. Using a Biacore T200 instrument (GE Healthcare), approximately 500-1000 RUs of FC5DIE3IR, FC5 and an irrelevant VHH (2A3-H4) were immobilized on a CM5 Series S sensor chip (GE Healthcare) at pH 4.0 using standard amine coupling according to the manufacturer's instructions (GE Healthcare). […] Surfaces were regenerated by washing with a 120 s pulse of 10 mM glycine pH 1.5. Data were analyzed with Biacore T200 Software v 3.0 and affinities determined using steady state binding or a 1:1 binding model.
(§2) Surface Plasmon Resonance (SPR).

[2] = molecular target: T2, VHH FC5; assay: phage ELISA of immune-library colonies, phage supernatant on coated FC5DIE3IR or FC5, anti-M13-HRP, TMB
T2 construct: put together from its FR and CDR entries; also called FC5-VHH; FC5 control

[3] = molecular target: T1, FC5DIE3IR recombinant protein; assay: ELISA on coated FC5DIE3IR, serial dilutions of purified mAb; fit One site - Specific binding with Hill slope
Experimental: (§3) Screening. Hybridoma supernatants were screened by ELISA to detect specific binders. To this end, 96-well half-area plates (Costar #3690) were coated with 25 μl of FC5DIE3IR or FC5-VHH or FC5-hFc-1X0 at 5 μg/ml in PBS and incubated overnight at 4° C. Microplates were washed 3 times with PBS, blocked with PBS-BSA 1%, and 25 μl of hybridoma supernatants were added and incubated at 37° C., 5% CO₂ for 2 hours. […] After 4 washes with PBS-Tween 20 0.05%, 25 μl of a 1 mg/ml pNPP substrate solution was added and further incubated for one hour at 37° C.
(§4) Evaluation of apparent affinity in ELISA. Purified antibodies were assessed for their binding activity by ELISA in a dose-dependent binding curve. Serial 1/3 dilutions of purified mAbs starting at 120 nM were applied onto wells and ELISA was performed as described above (screening section). The data were analyzed with GraphPad Prism software using one-site specific binding-with Hill slope non-linear regression curve fit model to determine Bₘₐₓ (maximum specific binding) and Kdₐₚₚ (concentration needed to achieve a half-maximum binding at equilibrium) for each mAb tested.

[4] = molecular target: T2, VHH FC5; assay: ELISA, hybridoma supernatant on coated purified FC5-VHH
Experimental: as §3

[5] = molecular target: T1, FC5DIE3IR recombinant protein; assay: ELISA on coated FC5DIE3IR, serial dilutions of purified mAb, OD 405 nm; fit One site - Specific binding with Hill slope; apparent Kd in the unit of the concentration axis (nM), the table itself prints no unit
Experimental: as §3, §4

[6] = molecular target: T2, VHH FC5; assay: SPR, single cycle kinetics, Fc-captured mAb, FC5 flowed, 25 C
Experimental: HBS-EP running buffer used for SPR experiments. […] Test binding experiments of FC5 control and FC5DIE3IR involved flowing 1 μM concentrations of SEC-pure material over the mAb surface at a flow rate of 30 μl/min for 5 min. Surfaces could be regenerated using 10 mM glycine, pH 1.7, with a 120 sec pulse at 20 μl/min. All SPR experiments were evaluated with Biacore T200 Software v 3.0. […] Regeneration conditions were the same as above. Data were fit to a 1:1 binding model and analyzed using the Biacore T200 Software v3.0.

[7] = molecular target: T3, peptide #40a (40 aa) (human); assay: ELISA on coated peptide or FC5DIE3IR, mAb detected with HRP anti-mouse Fc, Abs 450nm
T3 construct: Custom-synthesized (Biomatik); also called pep #40a; P40a
T3 peptide: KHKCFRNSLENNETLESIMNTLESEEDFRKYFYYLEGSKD
Experimental: (§5) The peptides were custom-synthesized (Biomatik) and tested for antibody binding by ELISA. […] The wells were blocked with 1% BSA in TBS-T for 30 min and then incubated with 1:1000 dilution of anti-hNaᵥ1.7 mAb at room temperature (RT) for one hr.

[8] = molecular target: T4, peptide #3 (30 aa) (human); assay: as above
T4 construct: Custom-synthesized (Biomatik); also called pep #3; P3
Experimental: as §5

[9] = molecular target: T1, FC5DIE3IR recombinant protein; assay: phage ELISA, phage supernatant on coated FC5DIE3IR or PBS wells, anti-M13-HRP, TMB
Experimental: FIG. 25A Phages were rescued from individual colonies, selected from the fourth round of panning and grown overnight at 37° C. Wells of a Nunc microtiter plate were coated with FC5DIE3IR and FC5 proteins at 5 μg/ml in PBS. […] Binding was detected with TMB substrate and A450 was measured using an ELISA plate reader.
Additional rounds (up to 3) of panning were performed by coating the ELISA plate with the same proteins and using the amplified phages after each round of panning as described above. After four rounds of panning, 77 randomly picked colonies were grown and subjected to monoclonal phage ELISA screening as described previously (Arbabi-Ghahroudi et al., 2009) except that 5 μg/ml of FC5DIE3IR and FC5 VHH (the negative control) were coated onto a microtiter plate. All positive clones specifically binding to FC5DIE3IR were sequenced and unique VHH sequences were selected for sub-cloning, large-scale expression, and purification.

[10] = molecular target: human Nav1.7 polypeptide (human, UniProt Q15858 1-1988); assay: cell-based or functional assay
[11] = molecular target: T5, peptide #2b (20 aa) (human); assay: ELISA on coated P2b, mAb at the dilutions 1:1000, 1:5000 and 1:10000, Abs 450nm
T5 construct: Custom-synthesized (Biomatik); also called pep #2b; P2b
T5 peptide: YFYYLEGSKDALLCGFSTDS
Experimental: as §5

[12] = molecular target: T6, peptide #2a (20 aa) (human); assay: ELISA on coated P2a, mAb at the dilutions 1:1000, 1:5000 and 1:10000, Abs 450nm
T6 construct: Custom-synthesized (Biomatik); also called pep #2a; P2a
T6 peptide: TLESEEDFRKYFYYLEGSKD
Experimental: as §5

[13] = molecular target: T7, peptide #2 (30 aa) (human); assay: ELISA on coated peptide or FC5DIE3IR, mAb detected with HRP anti-mouse Fc, Abs 450nm
T7 construct: Custom-synthesized (Biomatik); also called pep #2; P2
T7 peptide: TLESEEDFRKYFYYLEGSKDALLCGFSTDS
Experimental: as §5

[14] = molecular target: T1, FC5DIE3IR recombinant protein; assay: SPR (Biacore T200), single cycle kinetics, VHH flowed over immobilized FC5DIE3IR, 25 C
Text: as §1, §2

[15] = molecular target: T2, VHH FC5; assay: phage ELISA of immune-library colonies, phage supernatant on coated FC5DIE3IR or FC5, anti-M13-HRP, TMB; remark: listed apart in the source

T2 sequence (VHH, as listed by the source): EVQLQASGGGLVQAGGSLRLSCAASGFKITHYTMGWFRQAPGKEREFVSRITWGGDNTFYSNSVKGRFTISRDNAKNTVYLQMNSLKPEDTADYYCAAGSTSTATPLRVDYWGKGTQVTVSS
T4 sequence (peptide, as listed by the source): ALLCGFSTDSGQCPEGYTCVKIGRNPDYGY

B1: VHH DI-4 (VHH)
VHH: QVQLVESGGGLVQPGGSLRLSCAASGFTFSNYWMYWVRQAPGKGLERVSSIYISGGNTYYADSVKGRFTISRDNAKNTLYLQMNSLKSEDTAVYYCVKGDTFGGMDYWGKGTQVTVSS
notes: From the FC5DIE3IR llama immune library; soluble tagged monomer in SPR; not shown: cmyc and His6 tags at the C-terminus
Kd [1]: 2250 nM | binding result [2]: no binding

B2: anti-hNav1.7 mAb 1H5 (antibody, V domains shown)
VH: EVKLVESGGGLVKPGGSLKLSCAASGFTFRSYAMSWVRQTPEKGLEWVASISSGGSTYYPDSVKGRFTISRDNAGNILYLQMSSLRSEDTAMYYCARGYDGYYERIWYYAMDYWGQGTSVTVSS
VL: DIVMTQSQKFMSTSVGDRVTVSCKASQNVGTIVAWYQQKPGQSPKALIYSASYRFSGVPDRFTGSGSGTDFTLTISNVQSEDLAEYFCQQYNTYPLTFGSGTKLEIK
Bmax [3]: 0.583 OD405 nm | ELISA signal (OD 405 nm) [4]: 0.042 OD 405 nm | Kd [5]: 1.6 nM | binding result [6]: no binding | binding result [7]: binds | binding result [8]: binds

B3: VHH DI-E (VHH)
VHH: QVKLEESGGGLVQPGGSLRLSCAASEFTFSSSWGHWVRQAPGKGLKWVSSINSGGEGTYYADSVKGRFTISRDNGKNTLYLEMNSLKSEDTAVYYCTSASGAWGQGIQVTVSS
notes: From the naive LAC-M library; also called clone E; not shown: 6xHis and c-Myc tags on the soluble monomer
binding result [9]: binds

B4: VHH DI-B (VHH)
VHH: QVKLEESGGGLVPPGESLRLTCAATGQTASVYEMAWFRRAPEKEQVYVASINWRDGDTQYHNSVKGRFIISRDNAKNTVFLQMNSLTPEDTAIYYCAARKELAGYDYWGQGTQVTVSS
notes: From the naive LAC-M library; soluble tagged monomer in protein ELISA and patch clamp; also called clone B; not shown: 6xHis and c-Myc tags on the soluble monomer
reduction of the amplitude of the Nav1.7 currents at 1 µM [10]: 1.73% | binding result [9]: binds

B5: VHH DI-C (VHH)
VHH: QVKLEESGGGLVQPGESLRLSCVGSGFNFRIQAMAWFRQAPGKEREFVASISGSGATTDHADSVKGRFAISKDNARDTMYLQMNNLKPEDTAVYYCYAISQHVPPYHYWGQGTQVTVSS
notes: From the naive LAC-M library; soluble tagged monomer in protein ELISA and patch clamp; also called clone C; not shown: 6xHis and c-Myc tags on the soluble monomer
reduction of the amplitude of the Nav1.7 currents at 1 µM [10]: 0.46% | binding result [9]: binds

B6: VHH DI-H (VHH)
VHH: QVKLEESGGGLVQAGESLRLSCVNSGSTFSIYAMGWYRQAPGKQRELVAAISSVGRTNYADSVKGRFTISRAGAKNTVYLHMNNLKPEDTAVYSCITYYQNAMYFGQGTQVTVSS
notes: From the naive LAC-M library; soluble tagged monomer in protein ELISA and patch clamp; also called clone H; not shown: 6xHis and c-Myc tags on the soluble monomer
reduction of the amplitude of the Nav1.7 currents at 1 µM [10]: 1.72% | binding result [9]: binds

B7: anti-hNav1.7 mAb 1B6 (antibody, V domains shown)
VH: QVQLKESGPGLVAPSQSLSITCTVSGFSLSRYNVHWVRQPPGKGLEWLGMIWGGGSTDYNSALKSRLSISKDNSKSQVFLKMNSLQTDDTAMYYCARNGANWDWFAYWGQGTLVTVSA
VL: not shown
notes: also called IB6; F236-1B6
Bmax [3]: 1.07 OD405 nm | binding result [11]: no binding (tested: 1:1000 dilution) | binding result [12]: no binding (tested: 1:1000 dilution) | ELISA signal (OD 405 nm) [4]: 0.028 OD 405 nm | Kd [5]: 1.33 nM | binding result [6]: no binding | binding result [13]: binds | binding result [7]: binds | binding result [8]: no binding

B8: VHH DI-A (VHH)
VHH: QVQLVESGGGLVQPGGSLRLSCAASGRTISSFTMGWFRQAPGAEREFVAAISRSGSSTVYAGSVKGRFTISRDNAKNTVYLQMNSLKPEDTAVYYCNAVITEPLYKTDDSYWGQGTQVTVSS
notes: From the naive LAC-M library; soluble tagged monomer in protein ELISA and patch clamp; also called clone A; not shown: 6xHis and c-Myc tags on the soluble monomer
reduction of the amplitude of the Nav1.7 currents at 1 µM [10]: 2.73% | binding result [9]: binds

B9: VHH DI-28 (VHH)
VHH: QVQLVESGGGLVQAGGSLRLSCAASGRTFSSSGMGWFRQAPGKDRELVAGISWSGDSAYYANSVAGRFTISRDNINNTVYLQMNSLKPEDTAVYYCAARQGGRNYATSPREYDYWGQGTQVTVSS
notes: as for B1
Kd [14]: 4.44 nM | koff [14]: 0.00205 s⁻¹ | kon [14]: 461000 M⁻¹ s⁻¹ | binding result [15]: no binding
